Reference: patent US20160200799A1
Where two headings read alike, the source gives them in different places.

Assays:
Assay in all cases: cell-based or functional assay
[1] = biological target: Influenza virus A/Okuda/1957 (H2N2) (Influenza A virus A/Okuda/1957 (H2N2))
[2] = biological target: Influenza virus A/Panama/2007/1999 (H3N2) (Influenza A virus A/Panama/2007/1999 (H3N2))
[3] = biological target: Influenza virus A/Brisbane/59/2007 (H1N1) (Influenza A virus A/Brisbane/59/2007 (H1N1))
[4] = biological target: Influenza virus A/Suita/1/2009pdm (H1N1 2009 pandemic) (Influenza A virus A/Suita/1/2009pdm (H1N1pdm))
[5] = biological target: Influenza virus A/Indonesia/5/2005/PR8-IBCDC-RG2 (H5N1) (Influenza A virus A/Indonesia/5/2005/PR8-IBCDC-RG2 (H5N1))
[6] = biological target: Influenza virus A/Okuda/1957 (H2N2) (Influenza A virus A/Okuda/1957 (H2N2)); remark: listed apart in the source
[7] = biological target: Influenza virus A/Panama/2007/1999 (H3N2) (Influenza A virus A/Panama/2007/1999 (H3N2)); remark: listed apart in the source
[8] = biological target: Influenza virus A/Brisbane/59/2007 (H1N1) (Influenza A virus A/Brisbane/59/2007 (H1N1)); remark: listed apart in the source
[9] = biological target: Influenza virus A/Suita/1/2009pdm (H1N1 2009 pandemic) (Influenza A virus A/Suita/1/2009pdm (H1N1pdm)); remark: listed apart in the source
[10] = biological target: Influenza virus A/Indonesia/5/2005/PR8-IBCDC-RG2 (H5N1) (Influenza A virus A/Indonesia/5/2005/PR8-IBCDC-RG2 (H5N1)); remark: listed apart in the source

“F045-092 completely humanized IgG antibody (control anti-HA antibody)” showed an Infection inhibition rate (%) [1] of 0%, an Infection inhibition rate (%) at 0.024 µg/mL [1] of 0% and an Infection inhibition rate (%) at 0.391 µg/mL [1] of 0%. The Infection inhibition rate (%) at 1.6 µg/mL [1] was 0%, the Infection inhibition rate (%) at 6.3 µg/mL [1] was 0% and the Infection inhibition rate (%) at 25.0 µg/mL [1] was 0%. The Infection inhibition rate (%) at 100.0 µg/mL [1] was 15.8%, the Infection inhibition rate (%) at 200.0 µg/mL [1] was 39.4% and the Infection inhibition rate (%) [2] was 0%. It also gave an Infection inhibition rate (%) at 0.391 µg/mL [2] of 1.9%, an Infection inhibition rate (%) at 1.6 µg/mL [2] of 31.4% and an Infection inhibition rate (%) at 6.3 µg/mL [2] of 42.9%. The Infection inhibition rate (%) at 25.0 µg/mL [2] was 96.7%, the Infection inhibition rate (%) at 100.0 µg/mL [2] was 99% and the Infection inhibition rate (%) at 200.0 µg/mL [2] was 99.5%. For the same molecule, the Infection inhibition rate (%) [3] was 0%, the Infection inhibition rate (%) at 0.002 µg/mL [3] was 0% and the Infection inhibition rate (%) at 0.006 µg/mL [3] was 0%. For the same molecule, the Infection inhibition rate (%) at 0.024 µg/mL [3] was 0%, the Infection inhibition rate (%) at 0.391 µg/mL [3] was 0% and the Infection inhibition rate (%) at 1.6 µg/mL [3] was 0%. The Infection inhibition rate (%) at 6.3 µg/mL [3] was 5.3%, the Infection inhibition rate (%) at 25.0 µg/mL [3] was 24.4% and the Infection inhibition rate (%) at 100.0 µg/mL [3] was 30.2%. It also gave an Infection inhibition rate (%) at 200.0 µg/mL [3] of 58.4%, an Infection inhibition rate (%) [4] of 0% and an Infection inhibition rate (%) at 0.002 µg/mL [4] of 0%. For the same molecule, the Infection inhibition rate (%) at 0.006 µg/mL [4] was 0%, the Infection inhibition rate (%) at 0.024 µg/mL [4] was 4.2% and the Infection inhibition rate (%) at 0.391 µg/mL [4] was 4.2%. The Infection inhibition rate (%) at 1.6 µg/mL [4] was 0%, the Infection inhibition rate (%) at 6.3 µg/mL [4] was 6% and the Infection inhibition rate (%) at 25.0 µg/mL [4] was 0%. The Infection inhibition rate (%) at 100.0 µg/mL [4] was 16.1%, the Infection inhibition rate (%) at 200.0 µg/mL [4] was 15.1% and the Infection inhibition rate (%) at 0.024 µg/mL [5] was 0%. The Infection inhibition rate (%) at 0.391 µg/mL [5] was 0%, the Infection inhibition rate (%) at 0.98 µg/mL [5] was 0% and the Infection inhibition rate (%) at 1.6 µg/mL [5] was 0%. It also gave an Infection inhibition rate (%) at 6.3 µg/mL [5] of 0%, an Infection inhibition rate (%) at 25.0 µg/mL [5] of 14.3% and an Infection inhibition rate (%) at 100.0 µg/mL [5] of 28.2%. For the same molecule, the Infection inhibition rate (%) at 200.0 µg/mL [5] was 38.6%.

B1: F083-336 completely humanized IgG antibody (antibody, V domains shown)
VH: QVQLQQSGAEVKQPGSSVKVSCKASGGIFRSNAISWVRQAPGQGLEWMGGIVALFGTANYAQKFQGRVTITADESTSTVYMELSSLRSEDTARYYCARNSGYHISGFYLDYWGQGTLVTVSS
VL: EIVLTQSPSSLSASVGDRVTITCRASQGISNYLAWYQQRPGKVPKLLIYTASTLLSGVPSRFSGGGSGTDYTLTISSLQPEDVATYYCQEYKSVPLTFGPGTKVEIK
B1 gave an Infection inhibition rate (%) [6] of 2.5%, an Infection inhibition rate (%) at 0.024 µg/mL [6] of 0% and an Infection inhibition rate (%) at 0.391 µg/mL [6] of 19.9%. The Infection inhibition rate (%) at 1.6 µg/mL [6] was 39.8%, the Infection inhibition rate (%) at 6.3 µg/mL [6] was 81.5% and the Infection inhibition rate (%) at 25.0 µg/mL [6] was 86.7%. For the same molecule, the Infection inhibition rate (%) at 100.0 µg/mL [6] was 85.9%, the Infection inhibition rate (%) at 200.0 µg/mL [6] was 98.9% and the Infection inhibition rate (%) [7] was 2.9%. It also gave an Infection inhibition rate (%) at 0.391 µg/mL [7] of 4.8%, an Infection inhibition rate (%) at 1.6 µg/mL [7] of 0% and an Infection inhibition rate (%) at 6.3 µg/mL [7] of 0%. The Infection inhibition rate (%) at 25.0 µg/mL [7] was 0%, the Infection inhibition rate (%) at 100.0 µg/mL [7] was 0% and the Infection inhibition rate (%) at 200.0 µg/mL [7] was 0%. For the same molecule, the Infection inhibition rate (%) at 0.002 µg/mL [8] was 2.3%, the Infection inhibition rate (%) at 0.006 µg/mL [8] was 7.3% and the Infection inhibition rate (%) at 0.024 µg/mL [8] was 11.1%. The Infection inhibition rate (%) at 0.391 µg/mL [8] was 42.4%, the Infection inhibition rate (%) at 0.98 µg/mL [8] was 32.4% and the Infection inhibition rate (%) at 1.6 µg/mL [8] was 72.1%. The Infection inhibition rate (%) at 6.3 µg/mL [8] was 90.5%, the Infection inhibition rate (%) at 25.0 µg/mL [8] was 97.3% and the Infection inhibition rate (%) at 100.0 µg/mL [8] was 100%. The Infection inhibition rate (%) at 200.0 µg/mL [8] was 100%, the Infection inhibition rate (%) [9] was 30.7% and the Infection inhibition rate (%) at 0.002 µg/mL [9] was 0%. For the same molecule, the Infection inhibition rate (%) at 0.006 µg/mL [9] was 13.8%, the Infection inhibition rate (%) at 0.024 µg/mL [9] was 30.7% and the Infection inhibition rate (%) at 0.391 µg/mL [9] was 62.1%. For the same molecule, the Infection inhibition rate (%) at 1.6 µg/mL [9] was 93.2%, the Infection inhibition rate (%) at 6.3 µg/mL [9] was 100% and the Infection inhibition rate (%) at 25.0 µg/mL [9] was 100%. For the same molecule, the Infection inhibition rate (%) at 100.0 µg/mL [9] was 100%, the Infection inhibition rate (%) at 200.0 µg/mL [9] was 100% and the Infection inhibition rate (%) [10] was 1%. For the same molecule, the Infection inhibition rate (%) at 0.024 µg/mL [10] was 0%, the Infection inhibition rate (%) at 0.391 µg/mL [10] was 22.1% and the Infection inhibition rate (%) at 1.6 µg/mL [10] was 40.5%. For the same molecule, the Infection inhibition rate (%) at 6.3 µg/mL [10] was 66.4%, the Infection inhibition rate (%) at 25.0 µg/mL [10] was 86.7% and the Infection inhibition rate (%) at 100.0 µg/mL [10] was 89.3%. It also gave an Infection inhibition rate (%) at 200.0 µg/mL [10] of 98.5%.

B2: F081-007 completely humanized IgG antibody (antibody, V domains shown)
VH: QVQLQQSGAEVKKPGSSVKVSCKASGGIFRKNAISWVRQAPGQGLEWMGGISAIFGTANYAQKFQGRVTITADESSNTVYMDLSRLRSEDTAIYYCASHPTYHFDKSGYRFDSWGQGTLVTVSS
VL: QSVLTQPPSVSAAPGQKVTISCSGSSSNIGNNYVSWYQQLPGTAPKLLIYDNNKRPSGIPDRFSGSKSGTSATLGITGLQTGDEADYYCGTWDSSLSAGVFGGGTKLTVLG
B2 gave an Infection inhibition rate (%) at 0.024 µg/mL [6] of 0%, an Infection inhibition rate (%) at 0.391 µg/mL [6] of 37.2% and an Infection inhibition rate (%) at 0.98 µg/mL [6] of 16.5%. For the same molecule, the Infection inhibition rate (%) at 1.6 µg/mL [6] was 79%, the Infection inhibition rate (%) at 6.3 µg/mL [6] was 92.6% and the Infection inhibition rate (%) at 25.0 µg/mL [6] was 98.2%. It also gave an Infection inhibition rate (%) at 100.0 µg/mL [6] of 98.9%, an Infection inhibition rate (%) at 200.0 µg/mL [6] of 98.9% and an Infection inhibition rate (%) [7] of 0%. For the same molecule, the Infection inhibition rate (%) at 0.391 µg/mL [7] was 0%, the Infection inhibition rate (%) at 1.6 µg/mL [7] was 0% and the Infection inhibition rate (%) at 6.3 µg/mL [7] was 0%. It also gave an Infection inhibition rate (%) at 25.0 µg/mL [7] of 0%, an Infection inhibition rate (%) at 100.0 µg/mL [7] of 0% and an Infection inhibition rate (%) at 200.0 µg/mL [7] of 0%. The Infection inhibition rate (%) [8] was 36.3%, the Infection inhibition rate (%) at 0.002 µg/mL [8] was 0% and the Infection inhibition rate (%) at 0.006 µg/mL [8] was 9.9%. The Infection inhibition rate (%) at 0.024 µg/mL [8] was 27.9%, the Infection inhibition rate (%) at 0.391 µg/mL [8] was 59.2% and the Infection inhibition rate (%) at 1.6 µg/mL [8] was 82.4%. It also gave an Infection inhibition rate (%) at 6.3 µg/mL [8] of 90.1%, an Infection inhibition rate (%) at 25.0 µg/mL [8] of 100% and an Infection inhibition rate (%) at 100.0 µg/mL [8] of 100%. For the same molecule, the Infection inhibition rate (%) at 200.0 µg/mL [8] was 100%, the Infection inhibition rate (%) [9] was 49.8% and the Infection inhibition rate (%) at 0.002 µg/mL [9] was 29.3%. For the same molecule, the Infection inhibition rate (%) at 0.006 µg/mL [9] was 32%, the Infection inhibition rate (%) at 0.024 µg/mL [9] was 45.3% and the Infection inhibition rate (%) at 0.391 µg/mL [9] was 83.1%. It also gave an Infection inhibition rate (%) at 1.6 µg/mL [9] of 96.8%, an Infection inhibition rate (%) at 6.3 µg/mL [9] of 100% and an Infection inhibition rate (%) at 25.0 µg/mL [9] of 100%. It also gave an Infection inhibition rate (%) at 100.0 µg/mL [9] of 100%, an Infection inhibition rate (%) at 200.0 µg/mL [9] of 100% and an IC50 of neutralization [10] of 0.36 µg/mL. For the same molecule, the Infection inhibition rate (%) [10] was 10.2%, the Infection inhibition rate (%) at 0.024 µg/mL [10] was 7% and the Infection inhibition rate (%) at 0.391 µg/mL [10] was 55.3%. It also gave an Infection inhibition rate (%) at 1.6 µg/mL [10] of 85.1%, an Infection inhibition rate (%) at 6.3 µg/mL [10] of 100% and an Infection inhibition rate (%) at 25.0 µg/mL [10] of 100%. The Infection inhibition rate (%) at 100.0 µg/mL [10] was 100% and the Infection inhibition rate (%) at 200.0 µg/mL [10] was 100%.
